# Results from article PMC6412888, “Improving the Performance of Horseradish Peroxidase by Site-Directed Mutagenesis” (International Journal of Molecular Sciences, 2019).
# B1: Benchmark rHRP (HRP variant C1A) (Armoracia rusticana) (protein)
# chain: QLTPTFYDNSCPNVSNIVRDTIVNELRSDPRIAASILRLHFHDCFVNGCDASILLDNTTSFRTEKDAFGNANSARGFPVIDRMKAAVESACPRTVSCADLLTIAAQQSVTLAGGPSWRVPLGRRDSLQAFLDLANANLPAPFFTLPQLKDSFRNVGLNRSSDLVALSGGHTFGKNQCRFIMDRLYNFSNTGLPDPTLNTTYLQTLRGLCPLNGNLSALVDFDLRTPTIFDNKYYVNLEEQKGLIQSDQELFSSPNATDTIPLVRSFANSTQTFFNAFVEAMDRMGNITPLTGTQGQIRLNCRVVNSNS
# notes: mature HRP C1A without plant leader; E. coli BL21(DE3) periplasm, non-glycosylated, IMAC purified; hemin and CaCl2 added
# Legend:
# [1] = test system: T1, CCn1c(=NN=c2sc3cc(S(=O)(=O)O)ccc3n2CC)sc2cc(S(=O)(=O)O)ccc21; experiment: purified protein; format: biochemical, Armoracia rusticana
# T1 construct: mature HRP C1A without plant leader; E. coli BL21(DE3) periplasm, non-glycosylated, IMAC purified; hemin and CaCl2 added
# [2] = substrate: CCn1c(=NN=c2sc3cc(S(=O)(=O)O)ccc3n2CC)sc2cc(S(=O)(=O)O)ccc21; experiment: purified protein; format: biochemical, Armoracia rusticana; conditions: 1 mM H2O2, 50 mM KH2PO4 pH 5, 30 °C
# [3] = 1 mM H2O2, 50 mM BisTris/HCl pH 7, 7% glycerol, 100 mM NaCl, 30 °C
# [4] = 1 mM H2O2, 50 mM KH2PO4 pH 5, 30 °C
Molecule,"Km [1, 3] [mM]","Vmax [1, 3] [µM/min]","kcat [1, 3] [s⁻¹]","kcat/Km [1, 3] [M⁻¹ s⁻¹]",other results
Benchmark rHRP (HRP variant C1A) (Armoracia rusticana; N43D),3.29 ± 0.33,52.8,1.04 ± 0.05,320 ± 40,
Benchmark rHRP (HRP variant C1A) (Armoracia rusticana; N87S),3.22 ± 0.59,162,2.1 ± 0.19,640 ± 130,
Benchmark rHRP (HRP variant C1A) (Armoracia rusticana; N285D),4.37 ± 0.86,53.4,1.1 ± 0.12,240 ± 50,
Benchmark rHRP (HRP variant C1A) (Armoracia rusticana; N285D/N298D/N43D/N87S),,,,,"Km [1, 4]: 0.45 ± 0.12 mM; Vmax [1, 4]: 1080 µM/min; kcat [1, 4]: 17.4 ± 1.01 s⁻¹; kcat/Km [1, 4]: 39100 ± 10500 M⁻¹ s⁻¹"
Benchmark rHRP (HRP variant C1A) (Armoracia rusticana; N285D/N298D/N87S),9.52 ± 6.89,240,4.81 ± 2.37,510 ± 440,
Benchmark rHRP (HRP variant C1A) (Armoracia rusticana; N298D),7.85 ± 4.98,144,3 ± 1.25,380 ± 290,
Benchmark rHRP (HRP variant C1A) (Armoracia rusticana; N298D/N87S),4.18 ± 3.55,60,1.5 ± 0.58,360 ± 340,
B1,,,,,Km [2]: 0.44 ± 0.10 mM; Vmax [2]: 120 µM/min; kcat [2]: 2.24 ± 0.11 s⁻¹; kcat/Km [2]: 5070 ± 1160 M⁻¹ s⁻¹
